These results are taken from paper PMC2596486.

Experiment [1] addresses rHA subtype H1 (A/New Caledonia/20/99) (Influenza A virus A/New Caledonia/20/1999 (H1N1)) (UniProt Q6WG00). As to the kind of experiment: SPR.
Experiment [2] deals with rHA subtype H1 (A/New Caledonia/20/99) (influenza A virus A/New Caledonia/20/99 (H1)) (UniProt Q6WG00). Kind of experiment: SPR.

What is called Kd is the concentration at which binding is half-saturated. A low value points to higher affinity. The term koff denotes the first-order rate constant of dissociation. Lower therefore signals slow dissociation. As a reminder, the kon is the rate constant with which the complex forms. A lower kon goes with slower complex formation. As to CR6323 Fab, in experiment [1], the equilibrium dissociation constant (Kd) was determined as 3.9 nM, the koff came to 0.00054 s⁻¹ and the kon is 140000 M⁻¹ s⁻¹.
In experiment [2], CR6261 Fab had a Kd of 3.8 nM, a koff of 0.0037 s⁻¹ and a kon of 980000 M⁻¹ s⁻¹.
